This note sets out measurements from patent US20250263459A1, “STABILIZED PACAP PEPTIDE” (SENJU PHARMACEUTICAL CO., LTD., priority 2019, published 2025).

Starred links: 1 amine or outer side, 2 acyl side, 3 side chain; linkers in the order of their positions; H or OH if unused. Non-standard residues stand in square brackets, D forms with d. Residues, ends and D or L forms follow the SMILES beside them. No end group written: not given here. *: point of attachment. Ala(1H-tetrazol-5-yl) = N[C@@H](Cc1nnn[nH]1)C(=O)O; X2 = O=C([C@H](Cc1noc(=O)[nH]1)N[*:1])[*:2]; Tz = tetrazole-substituted aspartic acid; X3 = O=C([C@H](CCc1nnn[nH]1)N[*:1])[*:2]; Isovaleryl = CC(C)CC(=O)*; Nle = CCCC[C@H](N)C(=O)O

A short description of series [1]: Stability test 1: survival rate of peptide in phosphate buffer (pH 7.0) after storage, HPLC. In kind it is physicochemical. To be noted: 100 μM peptide, phosphate buffer pH 7.0, 40° C. Here is the method: The 1.0 mM peptide solutions were then diluted with phosphate buffer to 100 μM. […] The prepared peptide solutions were incubated for one month or 2 months in a 40° C. thermostatic bath to obtain stored samples.
Using the total weight of the aqueous peptide solution and storage vessel as the specimen weight, measurements were recorded as the specimen weights before storage and the specimen weights after storage under different storage conditions. The empty weight of the storage vessel was also measured, and the moisture permeability was determined by the following formula.
After stirring the standard sample and the stored samples with a vortex mixer, each peptide solution was transferred to an HPLC vial (Deactivated Qsert vial by Waters Co.). Reverse-phase HPLC (HPLC system: Prominence by Shimadzu Corp.) was conducted under the conditions shown in Table 3 below for analysis of the peptide solutions, and chromatograms were obtained.
The peak area value for the peptide in the chromatogram was calculated, and the survival rate (survival rate before correction for water) was calculated using formula (2). The survival rate after correction for water was also calculated from the survival rate before correction for water using formula (3) to take into account the permeability of the container.
Peptide solutions prepared by the same method as [Measuring sample preparation 1] for the peptides synthesized in Example 2 (peptides 13 to 16) were incubated for 2 weeks and 8 weeks in a thermostatic bath at 40° C. to obtain stored samples.
Peptide solutions prepared by the same method as [Measuring sample preparation 1] for the peptides synthesized in Example 2 (peptides 17 to 21) were incubated for 4 weeks in a thermostatic bath at 40° C. to obtain stored samples.
A peptide solution prepared by the same method as [Measuring sample preparation 1] for peptide 22 synthesized in Example 2 was incubated for 1 week and 4 weeks in a thermostatic bath at 40° C. to obtain stored samples.

Another series has as its target T1, PAC1 receptor (UniProt P41586 21-468, limits assumed).
T1 sequence (looked up): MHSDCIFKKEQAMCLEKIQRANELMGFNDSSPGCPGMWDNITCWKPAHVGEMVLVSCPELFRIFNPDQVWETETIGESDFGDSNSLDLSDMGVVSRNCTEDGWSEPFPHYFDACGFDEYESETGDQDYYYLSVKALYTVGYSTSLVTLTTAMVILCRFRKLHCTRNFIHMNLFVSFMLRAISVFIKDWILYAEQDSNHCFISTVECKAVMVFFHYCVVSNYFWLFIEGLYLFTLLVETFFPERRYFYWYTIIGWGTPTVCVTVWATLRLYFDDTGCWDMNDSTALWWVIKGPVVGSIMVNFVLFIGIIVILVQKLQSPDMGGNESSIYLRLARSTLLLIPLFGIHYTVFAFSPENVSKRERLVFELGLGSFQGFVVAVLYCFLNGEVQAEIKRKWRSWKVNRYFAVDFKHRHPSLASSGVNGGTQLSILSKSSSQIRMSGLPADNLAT
Put plainly: cell-based or functional assay.

The next series addresses T2, VPAC1 receptor (UniProt P32241 31-457, limits assumed).
T2 sequence (looked up): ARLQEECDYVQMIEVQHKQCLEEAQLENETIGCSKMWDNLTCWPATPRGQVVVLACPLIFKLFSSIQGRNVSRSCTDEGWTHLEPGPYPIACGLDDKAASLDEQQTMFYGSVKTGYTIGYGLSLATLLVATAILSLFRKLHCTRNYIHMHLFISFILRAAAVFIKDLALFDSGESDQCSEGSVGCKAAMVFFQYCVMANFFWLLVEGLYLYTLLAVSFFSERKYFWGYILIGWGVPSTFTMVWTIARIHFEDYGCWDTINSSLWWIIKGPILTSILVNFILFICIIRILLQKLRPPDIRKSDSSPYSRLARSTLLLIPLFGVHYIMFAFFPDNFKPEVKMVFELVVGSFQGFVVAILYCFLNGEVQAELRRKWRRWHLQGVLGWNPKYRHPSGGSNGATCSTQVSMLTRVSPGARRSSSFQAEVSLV
Kind of series: cell-based or functional assay.

Consider `CCCC[C@H](NC(=O)[C@H](CCC(N)=O)NC(=O)[C@H](CCCCN)NC(=O)[C@H](CCCNC(=N)N)NC(=O)[C@H](Cc1ccc(O)cc1)NC(=O)[C@H](CCCNC(=N)N)NC(=O)[C@H](CO)NC(=O)[C@H](Cc1ccc(O)cc1)NC(=O)[C@H](CO)NC(=O)[C@H](Cc1nnn[nH]1)NC(=O)[C@@H](NC(=O)[C@H](Cc1ccccc1)NC(=O)[C@@H](NC(=O)CNC(=O)[C@H](Cc1nnn[nH]1)NC(=O)[C@H](CO)NC(=O)[C@H](Cc1c[nH]cn1)NC(=O)CC(C)C)[C@@H](C)CC)[C@@H](C)O)C(=O)N[C@@H](C)C(=O)N[C@H](C(=O)N[C@@H](CCCCN)C(=O)N[C@@H](CCCCN)C(=O)N[C@@H](Cc1ccc(O)cc1)C(=O)N[C@@H](CC(C)C)C(=O)N[C@@H](C)C(=O)N[C@@H](C)C(=O)N[C@H](C(=O)N[C@@H](CC(C)C)C(N)=O)C(C)C)C(C)C` [Peptide 21] (Isovaleryl-HS[Ala(1H-tetrazol-5-yl)]GIFT[Ala(1H-tetrazol-5-yl)]SYSRYRKQ[Nle]AVKKYLAAVL-NH2), for which, in series [1] (4 weeks (Table 8)), the “survival rate after correction for water, 40° C. 4 week” value was 69.0%.

As to `CCCC[C@H](NC(=O)[C@H](CCC(N)=O)NC(=O)[C@H](CCCCN)NC(=O)[C@H](CCCNC(=N)N)NC(=O)[C@H](Cc1ccc(O)cc1)NC(=O)[C@H](CCCNC(=N)N)NC(=O)[C@H](CO)NC(=O)[C@H](Cc1ccc(O)cc1)NC(=O)[C@H](CO)NC(=O)[C@H](CCc1nnn[nH]1)NC(=O)[C@@H](NC(=O)[C@H](Cc1ccccc1)NC(=O)[C@@H](NC(=O)CNC(=O)[C@H](Cc1nnn[nH]1)NC(=O)[C@H](CO)NC(=O)[C@@H](N)Cc1c[nH]cn1)[C@@H](C)CC)[C@@H](C)O)C(=O)N[C@@H](C)C(=O)N[C@H](C(=O)N[C@@H](CCCCN)C(=O)N[C@@H](CCCCN)C(=O)N[C@@H](Cc1ccc(O)cc1)C(=O)N[C@@H](CC(C)C)C(=O)N[C@@H](C)C(=O)N[C@@H](C)C(=O)N[C@H](C(=O)N[C@@H](CC(C)C)C(N)=O)C(C)C)C(C)C` [Peptide 16, HSTzGI FTegTzSY SRYRK QNIAVK KYLAA VL] (H-HS[Ala(1H-tetrazol-5-yl)]GIFT[X3]SYSRYRKQ[Nle]AVKKYLAAVL-NH2), the “survival rate after correction for water, 40° C. 2 week” value in series [1] (2 weeks (Table 6)) was found to be 94.4%. Also, the “survival rate after correction for water, 40° C. 8 week” value in series [1] (8 weeks (Table 6)) worked out at 80.3%.

With `CCCC[C@H](NC(=O)[C@H](CCC(N)=O)NC(=O)[C@H](CCCCN)NC(=O)[C@H](CCCNC(=N)N)NC(=O)[C@H](Cc1ccc(O)cc1)NC(=O)[C@H](CCCNC(=N)N)NC(=O)[C@H](CO)NC(=O)[C@H](Cc1ccc(O)cc1)NC(=O)[C@H](CO)NC(=O)[C@H](Cc1noc(=O)[nH]1)NC(=O)[C@@H](NC(=O)[C@H](Cc1ccccc1)NC(=O)[C@@H](NC(=O)CNC(=O)[C@H](Cc1noc(=O)[nH]1)NC(=O)[C@H](CO)NC(=O)[C@H](Cc1c[nH]cn1)NC(C)=O)[C@@H](C)CC)[C@@H](C)O)C(=O)N[C@@H](C)C(=O)N[C@H](C(=O)N[C@@H](CCCCN)C(=O)N[C@@H](CCCCN)C(=O)N[C@@H](Cc1ccc(O)cc1)C(=O)N[C@@H](CC(C)C)C(=O)N[C@@H](C)C(=O)N[C@@H](C)C(=O)N[C@H](C(=O)N[C@@H](CC(C)C)C(N)=O)C(C)C)C(C)C` [Peptide 22, HS(50xa)GI FT(50xa)SY SRYRK QNIAVK KYLAA VL] (Ac-HS[X2]GIFT[X2]SYSRYRKQ[Nle]AVKKYLAAVL-NH2), the “survival rate after correction for water, 40° C. 1 week” value in series [1] (1 week (Table 10)) is reported as 89.7%. In series [1] (4 weeks (Table 10)), the “survival rate after correction for water, 40° C. 4 week” value came out at 79.7%.

Consider HS[Tz]GIFA[Tz]SYARYRKQMAVKKYLAAVL-NH2 (also: Tz racemic) [Peptide 2], for which the figures for the “EC50, cAMP assay (Hit Hunter cAMP, chemiluminescence RLU)” value (from here on “EC50, cAMP assay”) with PAC1 receptor and with VPAC1 receptor were 0.61 nM and 0.085 nM, respectively.

B1: Peptide 24 (peptide)
peptide: HSXGIFAXSYSRYRKQLAVKKYLAAVL
modifications: N-terminal Ac; tetrazole-substituted aspartic acid (Tz) at positions 3 and 8; C-terminal amide (NH2)
Consider B1, for which the “EC50, cAMP assay” value with PAC1 receptor stood at 1.26 nM; with VPAC1 receptor, 0.042 nM.

B2: Peptide 28 (peptide)
peptide: HSXGIFAXSYSRYRKALAVKKYLAAVL
modifications: N-terminal Ac; tetrazole-substituted aspartic acid (Tz) at positions 3 and 8; C-terminal amide (NH2)
On to B2, for which the “EC50, cAMP assay” value worked out at 2.12 nM in the series with PAC1 receptor and 0.072 nM with VPAC1 receptor.

B3: Peptide 19 (peptide)
peptide: HSXGIFTXSYSRYRKQXAVKKYLAAVL
modifications: N-terminal (CH3)2CHCO; tetrazole-substituted aspartic acid (Tz) at positions 3 and 8; norleucine (Nl) at position 17; C-terminal amide (NH2)
B3: the figures for the “EC50, cAMP assay” value with PAC1 receptor and in the series with VPAC1 receptor were 0.256 nM and 0.069 nM, respectively.

B4: Peptide 23 (peptide)
peptide: HSXGAFTXSYSRYRKQLAVKKYLAAVL
modifications: N-terminal Ac; tetrazole-substituted aspartic acid (Tz) at positions 3 and 8; C-terminal amide (NH2)
For the molecule B4, the “EC50, cAMP assay” value was determined as 1.15 nM with PAC1 receptor and 0.047 nM with VPAC1 receptor.

In the case of Ac-HA[Tz]GIFT[Tz]SYSRYRKALAVKKYLAAVL-NH2 [Peptide 26], the “EC50, cAMP assay” value in the series with PAC1 receptor worked out at 0.209 nM; in the series with VPAC1 receptor, 0.068 nM.

B5: Peptide 29 (peptide)
peptide: HSXGIFAXSYSRYRKQAAVKKYLAAVL
modifications: N-terminal Ac; tetrazole-substituted aspartic acid (Tz) at positions 3 and 8; C-terminal amide (NH2)
For the molecule B5, the “EC50, cAMP assay” value in the series with PAC1 receptor is 3.28 nM; in the series with VPAC1 receptor, 0.123 nM.

B6: Peptide 27 (peptide)
peptide: HSXGIFAXAYSRYRKQLAVKKYLAAVL
modifications: N-terminal Ac; tetrazole-substituted aspartic acid (Tz) at positions 3 and 8; C-terminal amide (NH2)
As for B6, the “EC50, cAMP assay” value was 2.53 nM with PAC1 receptor and 0.111 nM with VPAC1 receptor.

B7: Peptide 22 (peptide)
peptide: HSXGIFTXSYSRYRKQXAVKKYLAAVL
modifications: N-terminal Ac (CH3CO); oxadiazolone-substituted aspartic acid (5Oxa) at positions 3 and 8; norleucine (Nl) at position 17; C-terminal amide (NH2)
Regarding B7, the results for the “EC50, cAMP assay” value with PAC1 receptor and with VPAC1 receptor were 0.376 nM and 0.077 nM, respectively.

As for HS[Tz]GIFA[Tz]AYARYRKQMAVKKYLAAVL-NH2 (also: Tz racemic) [Peptide 3], the “EC50, cAMP assay” value with PAC1 receptor turned out to be 0.689 nM; with VPAC1 receptor, 0.111 nM.

Consider Ac-HA[Tz]GIFA[Tz]AYSRYRKAAAVKKYLAAVL-NH2 [Peptide 30], for which the “EC50, cAMP assay” value with PAC1 receptor was found to be 2.29 nM; with VPAC1 receptor, 0.113 nM.

B8: Peptide 20 (peptide)
peptide: HSXGIFTXSYSRYRKQXAVKKYLAAVL
modifications: not fully specified; N-terminal CH3CH2CH2CH2CO; tetrazole-substituted aspartic acid (Tz) at positions 3 and 8; norleucine (Nl) at position 17; C-terminal amide (NH2)
For B8, the entries for the “EC50, cAMP assay” value in the series with PAC1 receptor and with VPAC1 receptor were 0.574 nM and 0.131 nM, respectively.

B9: Peptide 18 (peptide)
peptide: HSXGIFTXSYSRYRKQXAVKKYLAAVL
modifications: N-terminal CH3CH2CH2CO; tetrazole-substituted aspartic acid (Tz) at positions 3 and 8; norleucine (Nl) at position 17; C-terminal amide (NH2)
Turning to B9, the entries for the “EC50, cAMP assay” value with PAC1 receptor and in the series with VPAC1 receptor were 0.189 nM and 0.069 nM, respectively.

B10: Peptide 25 (peptide)
peptide: HAXGIFAXSYSRYRKQLAVKKYLAAVL
modifications: N-terminal Ac; tetrazole-substituted aspartic acid (Tz) at positions 3 and 8; C-terminal amide (NH2)
On to B10, for which the “EC50, cAMP assay” value was 0.693 nM with PAC1 receptor and 0.041 nM with VPAC1 receptor.

B11: Peptide 21 (peptide)
peptide: HSXGIFTXSYSRYRKQXAVKKYLAAVL
modifications: N-terminal (CH3)2CHCH2CO; tetrazole-substituted aspartic acid (Tz) at positions 3 and 8; norleucine (Nl) at position 17; C-terminal amide (NH2)
In the case of B11, the “EC50, cAMP assay” value with PAC1 receptor was found to be 1.13 nM; in the series with VPAC1 receptor, 0.141 nM.
